Reference: paper doi:10.1101/2022.05.11.491581 (bioRxiv, 2022)

B1: LARGE1 with its coiled-coil (+CC) domain (residues 29-756), soluble secreted form (domain or fragment, human, UniProt O95461 29-756, looked up)
chain: LFSGSFEDGKPVSLSPLESQAHSPRYTASSQRERESLEVRMREVEEENRALRRQLSLAQGRAPSHRRGNHSKTYSMEEGTGDSENLRAGIVAGNSSECGQQPVVEKCETIHVAIVCAGYNASRDVVTLVKSVLFHRRNPLHFHLIADSIAEQILATLFQTWMVPAVRVDFYNADELKSEVSWIPNKHYSGIYGLMKLVLTKTLPANLERVIVLDTDITFATDIAELWAVFHKFKGQQVLGLVENQSDWYLGNLWKNHRPWPALGRGYNTGVILLLLDKLRKMKWEQMWRLTAERELMGMLSTSLADQDIFNAVIKQNPFLVYQLPCFWNVQLSDHTRSEQCYRDVSDLKVIHWNSPKKLRVKNKHVEFFRNLYLTFLEYDGNLLRRELFGCPSEADVNSENLQKQLSELDEDDLCYEFRRERFTVHRTHLYFLHYEYEPAADSTDVTLVAQLSMDRLQMLEAICKHWEGPISLALYLSDAEAQQFLRYAQGSEVLMSRHNVGYHIVYKEGQFYPVNLLRNVAMKHISTPYMFLSDIDFLPMYGLYEYLRKSVIQLDLANTKKAMIVPAFETLRYRLSFPKSKAELLSMLDMGTLFTFRYHVWTKGHAPTNFAKWRTATTPYRVEWEADFEPYVVVRRDCPEYDRRFVGFGWNKVAHIMELDVQEYEFIVLPNAYMIHMPHAPSFDITKFRSNKQYRICLKTLKEEFQQDMSRRYGFAALKYLTAENNS

Assays:
[1] = biological target: LARGE1 without its CC domain (-CC), soluble secreted form (human) (UniProt O95461); assay: cryo-EM structure
[2] = biological target: LARGE1 without its CC domain (-CC), soluble secreted form (human) (UniProt O95461); assay: mass photometry
[3] = biological target: LARGE1 without its CC domain (-CC), soluble secreted form (human) (UniProt O95461); assay: crystal structure
mass photometry = biological target: the molecule itself; assay: mass photometry

Row | Molecule | stoichiometry N [1] | stoichiometry N [2] | stoichiometry N [3] | stoichiometry N (mass photometry)
1 | LARGE1 without its CC domain (-CC), soluble secreted form (from UniProt O95461 96-276) (domain or fragment) | 2 | 2 | 2 | 
2 | B1 |  |  |  | 2
